Experimental findings from publication PMC9176698 are described below.

One experiment addresses DR5-Fc (UniProt O14763). Nature of the experiment: BLI; Octet; DR4-Fc or DR5-Fc immobilised on protein A-coated biosensors, inserted into solutions of TRAIL proteins at different concentrations (2.5-50 nM).
Another experiment addresses DR4-Fc (UniProt O00220). The experiment is described as above.
Chain of UniProt O00220 (O00220 24-239): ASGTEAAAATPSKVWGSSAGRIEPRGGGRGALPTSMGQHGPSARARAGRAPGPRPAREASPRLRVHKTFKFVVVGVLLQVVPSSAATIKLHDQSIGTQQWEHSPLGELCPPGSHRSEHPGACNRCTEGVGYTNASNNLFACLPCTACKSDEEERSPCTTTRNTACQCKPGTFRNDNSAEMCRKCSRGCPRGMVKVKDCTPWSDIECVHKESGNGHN

Chain of UniProt O14763 (O14763 56-210): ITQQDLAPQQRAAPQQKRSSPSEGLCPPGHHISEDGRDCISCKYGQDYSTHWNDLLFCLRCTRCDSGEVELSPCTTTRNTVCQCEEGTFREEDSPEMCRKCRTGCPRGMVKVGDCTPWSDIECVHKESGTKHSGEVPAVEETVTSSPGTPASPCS

With “RGR-TRAIL (tumor-homing RGR peptide fused to the N-terminus of TRAIL) (ligand)”, the values for the Kd in the experiment with DR5-Fc and with DR4-Fc were 0.46 nM and 1.1 nM, respectively.
